Data from PMC5051681.
One block for each substance: values may come before it.

Tests used:
PKC alpha C2 = PKC alpha C2 (UniProt P17252); conditions: cited from earlier work
[1] = target: C1a - 10 nm - C2 SPASM biosensor (human) (UniProt P17252); assay: FRET or BRET; change in heteroFRET after addition of free calcium against the concentration of C1a - 10 nm - C2; Hill binding model; half-maximal value taken as an estimate of the dissociation constant
[2] = target: PKCα sensor (N-terminal mCer, C-terminal mCit) with a TEV protease site between the C2 and kinase domains (human) (UniProt P17252); assay: dynamic light scattering; sensor pre-treated with TEV protease or BSA, or C2-mCit; relative increase in particle mass after 2 min with free calcium, matched concentration
[3] = target: regulatory domains of PKCα with mCer (N-terminal TEV product of the PKCα sensor cut between C2 and kinase) (human); assay: as above

Substance: PKC alpha C1a (from UniProt P17252)
Kd (PKC alpha C2): 4 nM

Kd [1]: 61.1 nM
Substance: C1a - 10 nm - C2 SPASM biosensor (from UniProt P17252 32-100; P17252 158-292)

mean particle size increase after free calcium (DLS, normalised) [2]: 5.61
Substance: PKCα sensor (N-terminal mCer, C-terminal mCit) with a TEV protease site between the C2 and kinase domains (from UniProt P17252 1-672) (natural protein)

mean particle size increase after free calcium (DLS, normalised) [3]: 2.61
Substance: regulatory domains of PKCα with mCer (N-terminal TEV product of the PKCα sensor cut between C2 and kinase) (domain or fragment)
